The target of assay [1] is Cy5 labeled PDZ14 (engineered yeast SmF variant with a PDZ domain at its C-terminus, 14-mer) (Saccharomyces cerevisiae). The assay can be described thus: fluorescence burst analysis of two-colour confocal trajectories.
Assay [2] has the same target. The assay is described as follows: dual-color fluorescence cross-correlation spectroscopy.

For “Alexa 488 labeled KKETPV14 (engineered yeast SmF variant with the short peptide KKETPV at its C-terminus, 14-mer)”, the stoichiometry N (KKETPV14:PDZ14) in assay [1] worked out at 0.99; in assay [2], 1.

The record behind these values is article PMC7959541.
